We go through five sequences from the Immune Epitope Database (IEDB).

Assay [1] addresses HLA-A*02:12. The experiment in a line: IEDB peptide-MHC binding, purified MHC/direct/fluorescence; filed as Kd, often an IC50 or EC50 that approximates it; ≥ and ≤ were set here for values at or beyond the usual limits of such assays. To be noted: source organism: Limestone Canyon virus.
Assay [2] deals with HLA-A*02:16. The description is as above. The note with it: source organism: Limestone Canyon virus.
The target of assay [3] is HLA-A*02:19. The assay is described as above. The note with it: source organism: Limestone Canyon virus.
Assay [4] addresses HLA-A*03:01. The assay is described as above.
Assay [5] has as its target HLA-A*29:02. The assay is described as above. To be noted: source organism: Limestone Canyon virus.
The target in assay [6] is HLA-B*07:02. Described as above.
Assay [7] concerns the target HLA-C*15:02. Described as above. The note with it: source organism: Four Corners hantavirus.
The target of assay [8] is HLA-A*26:01. Put plainly: IEDB peptide-MHC binding, purified MHC/competitive/fluorescence; filed as Kd, often an IC50 or EC50 that approximates it; ≥ and ≤ were set here for values at or beyond the usual limits of such assays.
Assay [9] has as its target HLA-A*69:01. The description is as above.
Assay [10] concerns the target HLA-B*15:01. The assay is described as above.
Assay [11] addresses HLA-B*15:17. The assay is described as above.
The target of assay [12] is HLA-B*18:01. Described as above.
Assay [13] addresses HLA-B*27:03. The description is as above.
Assay [14] concerns the target HLA-B*39:01. The assay is described as above.
In assay [15] the target is HLA-B*51:01. The assay is described as above.
For assay [16], the target named is HLA-B*57:01. The description is as above.
Assay [17] has as its target HLA-A*02:01. Put plainly: IEDB peptide-MHC binding, purified MHC/direct/fluorescence; filed as Kd, often an IC50 or EC50 that approximates it; ≥ and ≤ were set here for values at or beyond the usual limits of such assays.
Assay [18] addresses HLA-A*11:01. Described as above.
Assay [19] concerns the target HLA-A*24:03. Described as above.
Assay [20] has as its target HLA-A*26:01. The description is as above.
Assay [21] addresses HLA-A*31:01. Described as above.
For assay [22], the target named is HLA-A*69:01. Described as above.
The target of assay [23] is HLA-B*08:01. The description is as above.
For assay [24], the target named is HLA-B*15:01. Described as above.
Assay [25] concerns the target HLA-B*27:05. The description is as above.
In assay [26] the target is HLA-B*35:01. Described as above.
Assay [27] concerns the target HLA-B*40:01. The assay is described as above.
The target of assay [28] is HLA-B*44:02. The description is as above.
Assay [29] addresses HLA-B*58:01. The assay is described as above.
The target in assay [30] is HLA-A*02:01. The experiment in a line: IEDB peptide-MHC binding, purified MHC/competitive/fluorescence; filed as Kd, often an IC50 or EC50 that approximates it; ≥ and ≤ were set here for values at or beyond the usual limits of such assays.
Assay [31] concerns the target HLA-A*03:01. Described as above. The note with it: source organism: Pan troglodytes.
The target in assay [32] is HLA-A*68:02. Described as above. The note with it: source organism: Pan troglodytes.
For assay [33], the target named is HLA-B*46:01. The description is as above. To be noted: source organism: Pan troglodytes.
Assay [34] deals with HLA-A*01:01. The experiment in a line: IEDB peptide-MHC binding, purified MHC/direct/fluorescence; filed as Kd, often an IC50 or EC50 that approximates it; ≥ and ≤ were set here for values at or beyond the usual limits of such assays.
Assay [35] concerns the target HLA-A*68:02. The assay is described as above. To be noted: source organism: Marburg virus - Musoke, Kenya, 1980.
Assay [36] has as its target HLA-B*15:09. The description is as above. The note with it: source organism: Ravn virus - Ravn, Kenya, 1987.
Assay [37] has as its target HLA-B*15:17. The assay is described as above. To be noted: source organism: Marburg virus - Musoke, Kenya, 1980.
Assay [38] has as its target HLA-B*18:01. The description is as above. To be noted: source organism: Marburg virus - Musoke, Kenya, 1980.
The target of assay [39] is HLA-B*48:01. The description is as above. The note with it: source organism: Marburg virus - Musoke, Kenya, 1980.
In assay [40] the target is HLA-B*57:01. Described as above. The note with it: source organism: Marburg virus - Musoke, Kenya, 1980.
In assay [41] the target is HLA-A*02:06. Put plainly: IEDB peptide-MHC binding, purified MHC/competitive/fluorescence; filed as Kd, often an IC50 or EC50 that approximates it; ≥ and ≤ were set here for values at or beyond the usual limits of such assays. To be noted: source organism: Orthomarburgvirus marburgense.
The mark [42] stands for this setting: source organism: Four Corners hantavirus.
[43] abbreviates: source organism: Brucella abortus.
Where [44] appears, read: source organism: Brucella melitensis.
[45] abbreviates: source organism: Pan troglodytes.
The mark [46] stands for this setting: source organism: Marburg virus - Musoke, Kenya, 1980.
Setting [47] is: source organism: Ravn virus - Ravn, Kenya, 1987.
The mark [48] stands for this setting: source organism: Salmonella enterica subsp. enterica serovar Typhi.

As for KARNIISPV, the Kd in assay [1] was no less than 20 µM; in [2], no less than 20 µM; in assay [3], no less than 20 µM; in [4] (source organism: Limestone Canyon virus), no less than 20 µM; in assay [5], no less than 20 µM; in assay [6] (source organism: Hantavirus Monongahela-3) it was 0.107 µM. Further, the Kd in assay [7] was 0.088 µM; in [8] (setting [42]) it was no less than 20 µM; in assay [9] (setting [42]), no less than 20 µM; in [10] (setting [42]), no less than 20 µM; in [11] (setting [42]), no less than 20 µM; in assay [12] (setting [42]), no less than 20 µM. For the same sequence, the Kd in assay [13] (setting [42]), in [14] (setting [42]), in assay [15] (setting [42]) and in assay [16] (setting [42]) was no less than 20 µM in each case.

Take GYSFSIPGY: the Kd was no less than 20 µM in assay [17] (setting [43]); no less than 20 µM in assay [4] (setting [43]); no less than 20 µM in assay [18] (setting [43]); 1.07 µM in assay [19] (setting [44]); no less than 20 µM in [20] (setting [43]); no less than 20 µM in assay [21] (setting [43]). The Kd in assay [22] (setting [43]) was no less than 20 µM; in assay [6] (setting [43]), no less than 20 µM; in assay [23] (setting [43]), no less than 20 µM; in assay [24] (setting [44]), 0.548 µM; in assay [25] (setting [43]), no less than 20 µM; in assay [26] (setting [44]), 0.468 µM. In addition, the Kd in assay [27] (setting [43]), in assay [28] (setting [43]) and in assay [29] (setting [43]) was no less than 20 µM each time.

Consider FLFDRLTNG, for which the dissociation constant (Kd) is 0.0015 µM in [30] (setting [45]); no less than 20 µM in [31]; no less than 20 µM in assay [8] (setting [45]); no less than 20 µM in assay [32]; no less than 20 µM in assay [9] (setting [45]); no less than 20 µM in assay [10] (setting [45]). Further, the Kd in assay [11] (setting [45]), in assay [12] (setting [45]), in assay [13] (setting [45]), in assay [14] (setting [45]), in assay [33] and in assay [15] (setting [45]) was no less than 20 µM each time. For the same sequence, the Kd in [16] (setting [45]) is no less than 20 µM.

As for GEGSGARLL, the Kd in assay [34] (setting [46]), in [18] (setting [46]), in assay [20] (setting [47]), in [21] (setting [46]), in [35] and in [22] (setting [46]) was no less than 20 µM each time. In addition, the Kd in assay [6] (setting [46]), in assay [23] (setting [47]), in [36], in assay [37], in [38] and in assay [25] (setting [46]) was no less than 20 µM in each case. Also, the Kd in assay [27] (setting [46]) was 0.279 µM; in assay [39] it was no less than 20 µM; in assay [40] it was no less than 20 µM; in assay [29] (setting [46]) it was no less than 20 µM; in [30] (source organism: Orthomarburgvirus marburgense), 4.69 µM; in assay [41] it was 1.14 µM.

On to LPLIVDTAA, for which the Kd in assay [34] (setting [48]), in [17] (setting [48]), in [4] (setting [48]), in assay [18] (setting [48]), in assay [19] (setting [48]) and in [20] (setting [48]) was no less than 20 µM each time. In addition, the Kd was no less than 20 µM in [21] (setting [48]); no less than 20 µM in assay [22] (setting [48]); 5.75 µM in assay [6] (setting [48]); 11.2 µM in assay [23] (setting [48]); no less than 20 µM in assay [24] (setting [48]); no less than 20 µM in assay [25] (setting [48]). Besides, the Kd was 0.00636 µM in [26] (setting [48]), no less than 20 µM in [27] (setting [48]), no less than 20 µM in assay [28] (setting [48]) and no less than 20 µM in assay [29] (setting [48]).

As usually defined, the Kd is a measure of binding affinity in units of concentration.
